Assay results from patent US20050221488.

Tested on: Spo11 (Saccharomyces cerevisiae)
Test: cell_activity
Conditions: wild-type Spo11 without Gal4BD; DSBs barely detectable

For GAL2 promoter UASGAL sites, which activity (% DSB frequency) is on record?
The activity (% DSB frequency) was less than 0.6.
